This is an account of results in paper PMC2866327, “Designed Inhibitors of Insulin-Degrading Enzyme Regulate the Catabolism and Activity of Insulin” (PLoS ONE, 2010).

In this test the target is T1, insulin-degrading enzyme (recombinant human IDE) (human, UniProt P14735 1-1019).
T1 construct: insulin-degrading enzyme, human, recombinant; source: recombinant, purified from bacteria [33]
Put plainly: enzyme inhibition assay (Ki); recombinant human IDE (nominal 1 nM); dose-response of the hydrolysis of IDE substrates (FRET1, SP1, FAβB, 125I-insulin, or insulin by HTRF); the substrate used for the Ki values in the text is not stated. As to conditions: both partners purified.

Square brackets hold non-standard residues; d marks the D form. Ends that are not written are not given here. 2Nal = N[C@@H](Cc1ccc2ccccc2c1)C(=O)O; d2Nal = N[C@H](Cc1ccc2ccccc2c1)C(=O)O

Usually Ki stands for a dissociation constant, usually derived from enzyme kinetics or from competition with a known ligand. Regarding [2Nal]RWE (also: N-terminal hydroxamic acid moiety, structure not given here) [Ii1 (IDE inhibitor 1), conventional peptide hydroxamate incorporating 2-Nap at the P1' position], the Ki was around 1.7 nM.

B1: retro-inverso peptide hydroxamate Xaa-Arg-Tyr with 2-naphthylalanine (2-Nap) at P1' (peptide)
chain: [d2Nal]-[dR]-[dY]
modifications: also: retro-inverso backbone, hydroxamic acid next to P1', P1' said to be a β-amino acid
Take B1: the “fold gain in potency (relative Ki) against Phe at P1'” value was around 100 fold.
